The results in this text go back to paper PMC5291697.

In the assay the target is Ncore-MoRE (MeV N with MoRE relocated from Ntail to Ncore position 138) (measles virus (MeV-Edm strain)). The assay is described as follows: co-IP.

B1: standard measles virus (MeV) phosphoprotein P, full length (natural protein)
chain: MATLLRSLALFKRNKDKPPITSGSGGAIRGIKHIIIVPIPGDSSITTRSRLLDRLVRLIGNPDVSGPKLTGALIGILSLFVESPGQLIQRITDDPDVSIRLLEVVQSDQSQSGLTFASRGTNMEDEADQYFSHDDPISSDQSRFGWFENKEISDIEVQDPEGFNMILGTILAQIWVLLAKAVTAPDTAADSELRRWIKYTQQRRVVGEFRLERKWLDVVRNRIAEDLSLRRFMVALILDIKRTPGNKPRIAEMICDIDTYIVEAGLASFILTIKFGIETMYPALGLHEFAGELSTLESLMNLYQQMGETAPYMVILENSIQNKFSAGSYPLLWSYAMGVGVELENSMGGLNFGRSYFDPAYFRLGQEMVRRSAGKVSSTLASELGITAEDARLVSEIAMHTTEDKISRAVGPRQAQVSFLHGDQSENELPRLGGKEDRRVKQSRGEARESYRETGPSRASDARAAHLPTGTPLDIDTASESSQDPQDSRRSADALLRLQAMAGISEEQGSDTDTPIVYNDRNLLD
B1 returned a coprecipitation efficiency relative to standard N (% of standard N) of 75.
